Results reported in the supplement of paper PMC9112550, “Optimization of the antimicrobial peptide Bac7 by deep mutational scanning” (BMC Biology, 2022).

Tested on: Escherichia coli TOP10
Assay: shrunken log2 fold change of peptide-encoding DNA abundance (4.5 h post-induction vs induction); higher = less antimicrobial activity (less host growth inhibition)
Conditions: time post-induction: 4.5 h; library: site-saturation at positions 5, 18, 19, 20
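Further: peptides expressed intracellularly from a pBAD plasmid library in pooled LB shake-flask culture, induced with 0.3% L-arabinose, DNA abundance read by NGS, three biological replicates, DESeq2 with apeglm shrinkage.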

Row | Sequence | shrunken log2 fold change
1 | RRIRLRPPRLPRPRPRPSIFPRP | -0.709
2 | RRIRQRPPRLPRPRPRPPSKPRP | 0.353
3 | RRIRARPPRLPRPRPRPNLHPRP | 0.0181
4 | RRIRDRPPRLPRPRPRPGQNPRP | -0.0354
5 | RRIRCRPPRLPRPRPRPHTNPRP | -0.564
6 | RRIRHRPPRLPRPRPRPCKHPRP | -1.38
7 | RRIRERPPRLPRPRPRPRSYPRP | -0.0497
8 | RRIRTRPPRLPRPRPRPRDYPRP | 0.104
9 | RRIRHRPPRLPRPRPRPKREPRP | -0.0483
10 | RRIRERPPRLPRPRPRPVAWPRP | 0.00482
11 | RRIRWRPPRLPRPRPRPIQLPRP | -0.304
12 | RRIRERPPRLPRPRPRPDQPPRP | 0.0454
13 | RRIRTRPPRLPRPRPRPHFIPRP | -0.321
14 | RRIRPRPPRLPRPRPRPSFCPRP | 0.0813
15 | RRIRDRPPRLPRPRPRPMIMPRP | 0.387
16 | RRIRGRPPRLPRPRPRPLYEPRP | 0.913
17 | RRIRLRPPRLPRPRPRPPLNPRP | 0.0486
18 | RRIRTRPPRLPRPRPRPVAYPRP | -0.502
19 | RRIRPRPPRLPRPRPRPHYHPRP | -0.936
20 | RRIRIRPPRLPRPRPRPYYHPRP | -0.839
21 | RRIRIRPPRLPRPRPRPEFWPRP | -0.0113
22 | RRIRFRPPRLPRPRPRPTQAPRP | 0.442
23 | RRIRSRPPRLPRPRPRPIHRPRP | -0.172
24 | RRIRERPPRLPRPRPRPCCKPRP | -0.267
25 | RRIRWRPPRLPRPRPRPQWNPRP | -0.156

Row | Sequence | shrunken log2 fold change
26 | RRIRQRPPRLPRPRPRPLFQPRP | 0.866
27 | RRIRWRPPRLPRPRPRPLMNPRP | -0.0906
28 | RRIRERPPRLPRPRPRPQEKPRP | -0.015
29 | RRIRYRPPRLPRPRPRPDQTPRP | 0.00902
30 | RRIRERPPRLPRPRPRPFQSPRP | -0.00776
31 | RRIRLRPPRLPRPRPRPVLHPRP | -0.024
32 | RRIRYRPPRLPRPRPRPALFPRP | -0.0533
33 | RRIRVRPPRLPRPRPRPMWIPRP | 0.00541
34 | RRIRIRPPRLPRPRPRPQAWPRP | 0.386
35 | RRIRNRPPRLPRPRPRPYKEPRP | -0.0525
36 | RRIRYRPPRLPRPRPRPQAPPRP | -0.0309
37 | RRIRNRPPRLPRPRPRPYQKPRP | -0.0633
38 | RRIRTRPPRLPRPRPRPSTNPRP | -0.488
39 | RRIRTRPPRLPRPRPRPTDMPRP | -0.0264
40 | RRIRMRPPRLPRPRPRPPNFPRP | 0.35
41 | RRIRFRPPRLPRPRPRPCAQPRP | -0.077
42 | RRIRYRPPRLPRPRPRPSRYPRP | -0.122
43 | RRIRIRPPRLPRPRPRPYFEPRP | -1.2
44 | RRIRTRPPRLPRPRPRPASFPRP | 0.133
45 | RRIRSRPPRLPRPRPRPCDHPRP | -0.138
46 | RRIRPRPPRLPRPRPRPAIRPRP | 0.0298
47 | RRIRWRPPRLPRPRPRPCKCPRP | -0.0392
48 | RRIRCRPPRLPRPRPRPPIGPRP | -0.079
49 | RRIRIRPPRLPRPRPRPKNEPRP | -0.14
50 | RRIRCRPPRLPRPRPRPTGNPRP | 0.048

Row | Sequence | shrunken log2 fold change
51 | RRIRIRPPRLPRPRPRPIQAPRP | -0.209
52 | RRIRKRPPRLPRPRPRPFWKPRP | 0.0342
53 | RRIRCRPPRLPRPRPRPYPIPRP | -0.198
54 | RRIRQRPPRLPRPRPRPDYMPRP | -0.453
55 | RRIRMRPPRLPRPRPRPVDHPRP | -0.0711
56 | RRIRNRPPRLPRPRPRPPCSPRP | -0.327
57 | RRIRGRPPRLPRPRPRPHKFPRP | 0.151
58 | RRIRTRPPRLPRPRPRPRDLPRP | 0.064
59 | RRIRQRPPRLPRPRPRPHTHPRP | -0.342
60 | RRIRFRPPRLPRPRPRPWWQPRP | -0.0583
61 | RRIRRRPPRLPRPRPRPVVYPRP | 0.152
62 | RRIRCRPPRLPRPRPRPNGVPRP | -0.216
63 | RRIRVRPPRLPRPRPRPSQPPRP | -0.112
64 | RRIRCRPPRLPRPRPRPNHCPRP | -0.551
65 | RRIRFRPPRLPRPRPRPQWLPRP | -0.0613
66 | RRIRWRPPRLPRPRPRPNTDPRP | -0.262
67 | RRIRWRPPRLPRPRPRPVSGPRP | -0.0172
68 | RRIRERPPRLPRPRPRPYYMPRP | -0.785
69 | RRIRNRPPRLPRPRPRPDAEPRP | 0.45
70 | RRIRCRPPRLPRPRPRPAHHPRP | -0.222
71 | RRIRGRPPRLPRPRPRPTTVPRP | 0.368
72 | RRIRTRPPRLPRPRPRPCEPPRP | -0.0796
73 | RRIRERPPRLPRPRPRPWSEPRP | -0.398
74 | RRIRPRPPRLPRPRPRPNEIPRP | -0.139
75 | RRIRCRPPRLPRPRPRPQDMPRP | 0.0633
